Residue numbers refer to the chain shown, from its start.
B1: Lc4Hc2 (antibody, V domains shown)
VH: QVTLKESGPVLVKPTETLTLTCTVSGFSLSTYGMGVGWIRQPPGKALEWLAHIWWDDVKRYNPALKSRLTISKDTSKSQVVLTMTNMDPVDTATYYCARMGSDYDVWFDYWGQGTLVTVSS
VL: DIQMTQSPSSLSASVGDRVTITCRASKSISKYLAWYQQKPGKAPKRLIYSGSTLQSGVPSRFSGSGSGTEFTLTISSLQPEDFATYYCQQHNEYPYTFGGGTKVEIK
B2: Lc7Hc1 (antibody, V domains shown)
VL: B1 VL with M4L, Q37R, A43V, R46L, E70D, F83V, C88G, G100Q, V104L
VH: B1 VH with V10A, E16Q, V24F, S78N
B3: Lc3Hc6 (antibody, V domains shown)
VH: QVQLVESGGGVVQPGRSLRLSCAASGFSLSTYGMGVGWVRQAPGKGLEWVAHIWWDDVKRYNPALKSRFTISRDNSKNTLYLQMNSLRAEDTAVYYCARMGSDYDVWFDYWGQGTLVTVSS
VL: B1 VL with D1A, M4L, R46L, E70D
B4: Lc15Hc2 (antibody, V domains shown)
VH: B1 VH
VL: B1 VL with D1V, Q3W, S10L, V15T, T22S, K45E, R46L, E70D, S77C, P80S
B5: Lc15Hc1 (antibody, V domains shown)
VH: B1 VH with V10A, E16Q, V24F, S78N
VL: B1 VL with D1V, Q3W, S10L, V15T, T22S, K45E, R46L, E70D, S77C, P80S
B6: Lc7Hc6 (antibody, V domains shown)
VL: B1 VL with M4L, Q37R, A43V, R46L, E70D, F83V, C88G, G100Q, V104L
VH: B3 VH
B7: Lc11Hc2 (antibody, V domains shown)
VH: B1 VH
VL: B1 VL with D1A, Q3R, L11F, V15T, R46L, E70D, S77C, P80S
B8: Lc12Hc1 (antibody, V domains shown)
VH: B1 VH with V10A, E16Q, V24F, S78N
VL: B1 VL with G41E, R46S, E70D
B9: Lc10Hc2 (antibody, V domains shown)
VH: B1 VH
VL: B1 VL with M4L, S10F, R46L
B10: Lc5Hc2 (antibody, V domains shown)
VH: B1 VH
VL: B1 VL with M4L, S10F, R46L, G100Q
B11: Fab clone 3D11 (IL-13-62 library) (Fab, V domains shown)
VH: B1 VH
VL: EIVLTQSPATLSLSPGERATLSCRASKSISKYLAWYQQKPGQAPRLLIYSGSTLQSGIPARFSGSGSGTDFTLTISSLEPEDFAVYYCQQHLNGPYTFGQGTKLEIK
notes: Fab on phage pIX
B12: Fab clone 2D09 (IL-13-62 library) (Fab, V domains shown)
VH: B1 VH
VL: B11 VL with L92N, N93V
notes: Fab on phage pIX
B13: Fab clone 2G06 (IL-13-62 library) (Fab, V domains shown)
VH: B1 VH
VL: B11 VL with S56G, N93D, G94S
notes: Fab on phage pIX
B14: Fab clone 1F04 (IL-13-62 library) (Fab, V domains shown)
VH: B1 VH
VL: B11 VL with L92S, N93S
notes: Fab on phage pIX
B15: Fab clone 3F08 (IL-13-62 library) (Fab, V domains shown)
VH: B1 VH
VL: B11 VL with N93M
notes: Fab on phage pIX
B16: Fab clone 1F12 (IL-13-62 library) (Fab, V domains shown)
VH: B1 VH
VL: B11 VL with L92N, N93H
notes: Fab on phage pIX
B17: Fab clone 1D01 (IL-13-62 library) (Fab, V domains shown)
VH: B1 VH
VL: B11 VL with L92S, N93Y
notes: Fab on phage pIX
B18: Fab clone 1D02 (IL-13-62 library) (Fab, V domains shown)
VH: B1 VH
VL: B11 VL with S76G, L92D, N93W, G94S
notes: Fab on phage pIX
B19: Fab clone 1G05 (IL-13-62 library) (Fab, V domains shown)
VH: B1 VH
VL: B11 VL with H91Q, L92D, N93I
notes: Fab on phage pIX
B20: Fab clone 4B10 (IL-13-62 library) (Fab, V domains shown)
VH: B1 VH
VL: B11 VL with L92F, N93W
notes: Fab on phage pIX
B21: Fab clone 2E07 (IL-13-62 library) (Fab, V domains shown)
VH: B1 VH
VL: B11 VL with H91P, N93E, G94A
notes: Fab on phage pIX
B22: Fab clone 3A10 (IL-13-62 library) (Fab, V domains shown)
VH: B1 VH
VL: B11 VL with L92V, N93W
notes: Fab on phage pIX
B23: Fab clone 2A07 (IL-13-62 library) (Fab, V domains shown)
VH: B1 VH
VL: B11 VL with L92D, N93P
notes: Fab on phage pIX
B24: Fab clone 1F05 (IL-13-62 library) (Fab, V domains shown)
VH: B1 VH
VL: B11 VL with L92V, N93G
notes: Fab on phage pIX
B25: Fab clone 3G05 (IL-13-62 library) (Fab, V domains shown)
VH: B1 VH
VL: B11 VL with H91P, N93D, G94S
notes: Fab on phage pIX
B26: Fab clone 1C09 (IL-13-62 library) (Fab, V domains shown)
VH: B1 VH
VL: B11 VL with Q38R, L92N, N93E, G94A
notes: Fab on phage pIX
B27: Fab clone 1H05 (IL-13-62 library) (Fab, V domains shown)
VH: B1 VH
VL: B11 VL with H91Q, L92D, N93Y
notes: Fab on phage pIX
B28: Fab clone 4D01 (IL-13-62 library) (Fab, V domains shown)
VH: B1 VH
VL: B11 VL with H91P, N93D, G94V
notes: Fab on phage pIX
B29: Fab clone 1F11 (IL-13-62 library) (Fab, V domains shown)
VH: B1 VH
VL: B11 VL with L92S, N93V
notes: Fab on phage pIX
B30: Fab clone 3E03 (IL-13-62 library) (Fab, V domains shown)
VH: B1 VH
VL: B11 VL with L92S, N93I
notes: Fab on phage pIX
B31: Fab clone 2A11 (IL-13-62 library) (Fab, V domains shown)
VH: B1 VH
VL: B11 VL with L92S, N93H
notes: Fab on phage pIX
B32: Fab clone 1D08 (IL-13-62 library) (Fab, V domains shown)
VH: B1 VH
VL: B11 VL with L92D, N93W, G94E
notes: Fab on phage pIX
B33: Fab clone 1H02 (IL-13-62 library) (Fab, V domains shown)
VH: B1 VH
VL: B11 VL with N93L
notes: Fab on phage pIX
B34: Fab clone 3G01 (IL-13-62 library) (Fab, V domains shown)
VH: B1 VH
VL: B11 VL with H91Q, L92D, N93L
notes: Fab on phage pIX
B35: Fab clone 1H06 (IL-13-62 library) (Fab, V domains shown)
VH: B1 VH
VL: B11 VL with L92D, N93W, G94A
notes: Fab on phage pIX
B36: Fab clone 3C01 (IL-13-62 library) (Fab, V domains shown)
VH: B1 VH
VL: B11 VL with L92N, N93F
notes: Fab on phage pIX
B37: Fab clone 4F07 (IL-13-62 library) (Fab, V domains shown)
VH: B1 VH
VL: B11 VL with H91P, L92I, N93D, G94A
notes: Fab on phage pIX
B38: Fab clone 3H12 (IL-13-62 library) (Fab, V domains shown)
VH: B1 VH
VL: B11 VL with L92D, N93S
notes: Fab on phage pIX
B39: Fab clone 1H12 (IL-13-62 library) (Fab, V domains shown)
VH: B1 VH
VL: B11 VL with L92D, N93L
notes: Fab on phage pIX

target: T1, human IL-13 R130Q variant (R110Q of the mature chain) (human, UniProt P35225 35-146, Biotinylated on amines (NHS-LC-biotin, 4:1) in ELISA, panning and competition assays. The letters are unchanged.); assay: direct binding ELISA, mAb captured by anti-human Fc, biotinylated IL-13 R130Q, crude supernatant;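 note: 100% is the positive control mAb signal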
T1 construct: R130Q counts from Met 1 of the signal peptide, R110Q on the mature chain; Bought from Peprotech; also called IL-13 R110Q; b-R130Q

Binder | Percent IL-13 R130Q (30 ng/ml) Binding
B1 | 84.7%
B2 | -1.4%
B3 | 26.6%
B4 | 94.8%
B5 | 76.2%
B6 | -0.3%
B7 | 92.2%
B8 | 36.4%
B9 | 78.9%
B10 | 85.9%

target: T1, human IL-13 R130Q variant (R110Q of the …); assay: competition ELISA, biotinylated IL-13 R130Q binding to plate-bound IL-13Ra2, crude supernatant

Binder | Percent Inhibition IL-13 R130Q (333 ng/ml) to Ra2
B1 | 55%
B2 | 6%
B3 | 14%
B4 | 61%
B5 | 44%
B6 | 4%
B7 | 51%
B8 | 26%
B9 | 57%
B10 | 57%

target: T1, human IL-13 R130Q variant (R110Q of the …); assay: single-point (10 nM) phage Fab ELISA on biotinylated IL-13 R130Q

Binder | Signal (% of Lc16Hc7)
B11 | 136%
B12 | 108%
B13 | 112%
B14 | 108%
B15 | 111%
B16 | 100%
B17 | 144%
B18 | 117%
B19 | 144%
B20 | 117%
B21 | 104%
B22 | 160%
B23 | 136%
B24 | 144%
B25 | 108%
B26 | 152%
B27 | 172%
B28 | 140%
B29 | 108%
B30 | 122%
B31 | 132%
B32 | 116%
B33 | 148%
B34 | 122%
B35 | 139%
B36 | 124%
B37 | 116%
B38 | 120%
B39 | 111%

From patent US20120045438A1 (Janssen / Centocor, published 2012)
